Measurements taken from US10336832.
Each block holds one binder with its values, some of them ahead of it.

Legend:
[1] = molecular target: pKal catalytic domain Mutant 4 (human) (UniProt P03952); experiment: Ki,app, equilibrium, fluorogenic substrate
[2] = molecular target: human plasma kallikrein (active form, purified from human plasma and activated with factor XIIa) (human) (UniProt P03952); experiment: ELISA, target/background
human plasma kallikrein (active form, purified from human plasma and activated with factor XIIa) (human), sequence (P03952 20-390 limits assumed, chain 1 of 2): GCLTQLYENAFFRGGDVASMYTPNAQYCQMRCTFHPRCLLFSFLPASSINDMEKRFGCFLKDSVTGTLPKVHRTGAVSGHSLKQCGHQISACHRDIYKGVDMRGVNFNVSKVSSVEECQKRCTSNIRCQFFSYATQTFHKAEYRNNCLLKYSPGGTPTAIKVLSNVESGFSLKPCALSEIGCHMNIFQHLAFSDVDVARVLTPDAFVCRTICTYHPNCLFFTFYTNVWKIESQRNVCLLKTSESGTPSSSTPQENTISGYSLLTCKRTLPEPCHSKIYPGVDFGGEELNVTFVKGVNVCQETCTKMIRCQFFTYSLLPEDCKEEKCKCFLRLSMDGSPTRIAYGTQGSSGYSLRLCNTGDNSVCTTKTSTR
human plasma kallikrein (active form, purified from human plasma and activated with factor XIIa) (human), sequence (P03952 391-638 limits assumed, chain 2 of 2): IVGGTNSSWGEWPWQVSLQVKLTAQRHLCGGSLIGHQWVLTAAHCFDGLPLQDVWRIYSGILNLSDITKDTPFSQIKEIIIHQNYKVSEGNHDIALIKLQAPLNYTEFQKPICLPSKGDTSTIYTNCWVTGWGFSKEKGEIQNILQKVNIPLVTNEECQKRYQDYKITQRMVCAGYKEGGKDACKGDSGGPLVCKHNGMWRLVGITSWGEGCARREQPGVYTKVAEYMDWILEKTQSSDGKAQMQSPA

pKal catalytic domain Mutant 4 (human), sequence (P03952 other isoform, or with tags, fused parts or gaps mutant): as the sequence (P03952 391-638 limits assumed, chain 2 of 2) above, with S7A, S8A counted along it

Ki [1]: 0.25 nM
B1: X101-A01 (antibody, V domains shown)
VH: EVQLLESGGGLVQPGGSLRLSCAASGFTFSHYLMTWVRQAPGKGLEWVSYISPSGGHTIYADSVKGRFTISRDNSKNTLYLQMNSLRAEDTAVYYCARVARGIAARSRTSYFDYWGQGTLVTVSS
VL: EIVLTQSPGTLSLSPGERATLSCRTSQFVNSNYLAWYQQKPGQAPRLLIYGASSRATGIPDRFSGSGSGTDFTLTISRLEPEDFAVYYCQQSSRTPWTFGQGTKVEIK

ELISA (T/B) [2]: 2
B2: M29-E02 (Fab, V domains shown)
VH: EVQLLESGGGLVQPGGSLRLSCAASGFTFSRYPMMWVRQAPGKGLEWVSVIYPSGGDTFYADSVKGRFTISRDNSKNTLYLQMNSLRAEDTAVYYCASGDDYLWEAAVYWGQGTLVTVSS
VL: QSVLTQPPSVSEAPRQRVTISCSGSSSNIGNNAVSWYQQLPGKAPKLLIYYDDLLPSGVSDRFSGSKSGTSASLAISGLRSEDEADYYCAAWDDSLNGFVFGTGTKVTVL

ELISA (T/B) [2]: 1.5
B3: M28-F01 (Fab, V domains shown)
VH: EVQLLESGGGLVQPGGSLRLSCAASGFTFSVYLMHWVRQAPGKGLEWVSGISPSGGYTQYADSVKGRFTISRDNSKNTLYLQMNSLRAEDTAVYYCARPGGLDAFDIWGQGTMVTVSS
VL: DIQMTQSPSSLSASVGDRVTITCRASQSINTYLNWYQQKPGKAPKVLIHAASTLESGVPSRFSGSGSGTDFTLTISSLQPEDFATYYCQQSYSTPPTFGQGTKVEIK
